Test results from patent publication US20140024592A1, “Modified Relaxin Polypeptides” (Howard Florey Institute of Experimental Physiology and …, priority 2010, published 2014).
No end group written: not given here.

T1: RXFP1 receptor (UniProt Q9HBX9 1-757, limits assumed)
T1 sequence (looked up): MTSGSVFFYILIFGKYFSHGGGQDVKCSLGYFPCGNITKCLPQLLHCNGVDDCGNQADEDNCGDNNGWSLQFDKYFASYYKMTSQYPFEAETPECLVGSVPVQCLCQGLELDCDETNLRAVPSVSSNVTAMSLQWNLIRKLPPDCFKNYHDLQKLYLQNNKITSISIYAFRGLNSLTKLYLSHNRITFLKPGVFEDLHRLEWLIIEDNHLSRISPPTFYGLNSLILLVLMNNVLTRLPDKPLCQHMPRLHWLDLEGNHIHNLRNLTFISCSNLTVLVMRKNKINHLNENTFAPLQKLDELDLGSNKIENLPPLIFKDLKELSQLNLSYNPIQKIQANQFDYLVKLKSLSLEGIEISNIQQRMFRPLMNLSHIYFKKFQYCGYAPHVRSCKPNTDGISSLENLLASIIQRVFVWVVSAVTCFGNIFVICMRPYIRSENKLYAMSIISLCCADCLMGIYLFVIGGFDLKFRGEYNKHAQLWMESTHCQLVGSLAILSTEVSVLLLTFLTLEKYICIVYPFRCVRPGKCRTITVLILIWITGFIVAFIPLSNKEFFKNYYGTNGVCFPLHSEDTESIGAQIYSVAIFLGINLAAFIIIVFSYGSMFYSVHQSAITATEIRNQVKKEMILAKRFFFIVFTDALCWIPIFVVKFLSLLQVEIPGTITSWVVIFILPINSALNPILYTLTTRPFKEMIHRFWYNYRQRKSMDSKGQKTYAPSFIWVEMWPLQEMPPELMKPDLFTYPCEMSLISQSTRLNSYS

T2: RXFP3 (Homo sapiens, UniProt Q9NSD7)
T2 construct: expressed in transfected cells; host or cells: CHO-K1
T2 sequence (Q9NSD7 1-469): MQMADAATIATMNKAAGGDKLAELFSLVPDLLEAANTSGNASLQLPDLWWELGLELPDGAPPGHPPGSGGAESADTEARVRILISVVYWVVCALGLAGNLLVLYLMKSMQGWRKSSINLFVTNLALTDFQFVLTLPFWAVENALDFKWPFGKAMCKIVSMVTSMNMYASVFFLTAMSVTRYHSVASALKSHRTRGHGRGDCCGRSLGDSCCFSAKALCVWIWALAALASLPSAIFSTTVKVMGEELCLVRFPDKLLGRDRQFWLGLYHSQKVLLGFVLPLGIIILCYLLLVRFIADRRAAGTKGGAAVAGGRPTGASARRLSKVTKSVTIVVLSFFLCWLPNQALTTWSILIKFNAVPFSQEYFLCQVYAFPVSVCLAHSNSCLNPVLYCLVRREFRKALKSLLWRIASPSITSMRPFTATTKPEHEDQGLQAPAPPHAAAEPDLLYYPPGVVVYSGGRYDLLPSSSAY

T3: RXFP3 receptor (UniProt Q9NSD7 1-469, limits assumed)
T3 sequence (looked up): T2 sequence (Q9NSD7 1-469)

B1: analogue 18 (peptide)
chain 1: CKWGASKSEISSLC
chain 2: RLCGREFIRAVIFTCGGSRW
notes: Synthetic
B2: analogue 15 (peptide)
chain 1: CKWGASKSEISSLC
chain 2: RAAPYGVRLCGREFIRAVIFTCGGSRW
modifications: disulfide (positions not given here)
notes: Synthetic; two inter-chain disulphides, no intra-A-chain disulphide; also called [R3A(11-24,C15→A)B]; RXFP3-selective agonist, analogue 2
B3: analogue 19 (peptide)
chain 1: CKWGASKSEISSLC
chain 2: CGREFIRAVIFTCGGSRW
notes: Synthetic
B4: analogue 17 (peptide)
chain 1: CKWGASKSEISSLC
chain 2: GVRLCGREFIRAVIFTCGGSRW
notes: Synthetic
B5: native human relaxin-3 (H3 relaxin) (ligand)
chain 1: DVLAGLSSSCCKWGCSKSEISSLC
chain 2: RAAPYGVRLCGREFIRAVIFTCGGSRW
modifications: disulfide (positions not given here); also: one intra-A-chain and two inter-chain disulphide bonds, places not given here
notes: Two-chain peptide; one intra-A-chain and two inter-chain disulphide bonds; also called native relaxin-3
B6: analogue 14 (peptide)
chain 1: DVLAGLSSSACKWGASKSEISSLC
chain 2: RAAPYGVRLCGREFIRAVIFTCGGSRW
modifications: disulfide (positions not given here)
notes: Synthetic; no intra-A-chain disulphide, two inter-chain disulphides kept
B7: human INSL5 (ligand)
chain 1: QDLQTLCCTDGCSMTDLSALC
chain 2: KESVRLCGLEYIRTVIYICASSRW
notes: mature; Native receptor ligand used as comparator at RXFP4; also called hINSL5; native INSL5

Legend:
[1] = target: T1, RXFP1 receptor; experiment: cell-based or functional assay
[2] = system: human dermal fibroblasts (BJ3 cells) which express RXFP1; experiment: TGF-β1-induced collagen expression in human dermal fibroblasts (hydroxyproline content); type: cell-based; details: TGF-β1 2 ng/mL plus peptide 100 ng/mL, 72 hr
Protocol: The deposited collagen into the cell layer was hydrolysed and analysed for hydroxyproline content, as previously described (Samuel et al., 1996, Endocrinology 137:3884-3890). Hydroxyproline values were then converted to total collagen content by multiplying by a factor of 6.94 (based on hydroxyproline representing approximately 14.4% of the amino acid composition of collagen in most mammalian tissues). These experiments were performed 3-4 separate times in duplicate.

[3] = target: T2, RXFP3; experiment: Inhibition of forskolin-induced cAMP accumulation in RXFP3 expressing CHO-K1 cells (cAMP reporter gene assay); type: cell-based; details: CHO-K1, read-out: forskolin-induced cAMP production inhibited to
Protocol: CHO-K1 cells were subcultured in clear 96 well plates (10,000 cells/well/200 μl media) and after 24 h, they were co-transfected with pCRE-8-galactosidase reporter plasmid. 24 hours later, cells were treated with 5 μM forskolin together with increasing concentration of relaxin-3 polypeptides. […] The stimulation was carried out for 6 h after which the media was aspirated and the cells were frozen at −80° C. overnight. The cells were thawed to room temperature and the amount of cAMP-induced β-galactosidase expression was measured by adding 25 μl of 0.1× buffer A (100 mM Na2HPO4 (pH 8.0), 2 mM MgSO4, 0.1 mM MnCl2) and shaking at room temperature for 10 minutes to hypotonically lyse the cells. Then 100 μl of buffer B (similar to buffer A with additional 0.5% Triton X-100 and 40 mM β-mercaptoethanol) was added to each well with shaking for 10 minutes at room temperature. Finally, 25 μl of substrate for 6-galactosidase (chlorophenol red β-D galactopyranoside) was added to each well with shaking until the colour change was observed. The absorbance was measured at 570 nm on Victor^3 plate reader (PerkinElmer, Glen Waverly, VIC). The data were analysed using GraphPad PRISM 4 (GraphPad Inc., San Diego, USA). […] Statistical analysis was carried out using one-way ANOVA with Bonferroni's multiple comparison test.

[4] = target: T4, RXFP4 receptor (UniProt Q8TDU9 1-374, limits assumed); experiment: cell-based or functional assay
[5] = target: T1, RXFP1 receptor; experiment: competition with Eu-labelled H2 relaxin on HEK-293T cells expressing RXFP1
[6] = target: T3, RXFP3 receptor; experiment: cell-based or functional assay
[7] = target: T4, RXFP4 receptor; experiment: competition with 2.5 nM Eu-labelled mouse INSL5 on CHO-K1 cells expressing RXFP4
[8] = target: T3, RXFP3 receptor; experiment: cell-based or functional assay; remark: listed apart in the source
[9] = target: T3, RXFP3 receptor; experiment: competition with 0.5 nM Eu-labelled INSL5A/H3 relaxinB on CHO-K1 cells expressing RXFP3

T4 sequence (Q8TDU9 whole entry): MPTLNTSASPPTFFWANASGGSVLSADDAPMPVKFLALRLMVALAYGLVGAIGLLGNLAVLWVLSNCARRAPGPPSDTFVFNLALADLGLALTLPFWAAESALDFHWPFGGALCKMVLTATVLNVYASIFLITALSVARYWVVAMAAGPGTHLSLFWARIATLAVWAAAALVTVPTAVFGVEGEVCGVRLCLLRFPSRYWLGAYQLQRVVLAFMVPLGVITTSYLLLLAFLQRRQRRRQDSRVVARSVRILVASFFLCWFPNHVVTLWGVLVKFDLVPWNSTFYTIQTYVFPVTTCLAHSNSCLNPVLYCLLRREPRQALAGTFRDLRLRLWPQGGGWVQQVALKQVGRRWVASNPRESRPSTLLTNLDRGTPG

| Molecule | pEC50 (M), activation of RXFP4 [4] | binding result [5] | other results |
| --- | --- | --- | --- |
| H2 relaxin (from UniProt P04090 162-185; P04090 25-53) (ligand) |  |  | inhibition of TGF-β1-induced collagen in human dermal fibroblasts (BJ3 cells) [1]: 35% |
| H2 relaxin: native human relaxin-2, cognate ligand of RXFP1 (chain 1 QLYSALANKCCHVGCTKRSLARFC; chain 2 DSWMEEVIKLCGRELVRAQIAICGMSTWS) |  |  | inhibition of TGF-β1 induced collagen compared to TGF-β1 alone [2]: 35% |
| CC[C@H](C)[C@@H]1NC(=O)[C@H](Cc2ccccc2)NC(=O)[C@H](CCC(=O)O)NC(=O)[C@H](CCCNC(=N)N)NC(=O)CNC(=O)[C@@H](NC(=O)[C@H](CC(C)C)NC(=O)[C@H](CCCNC(=N)N)NC(=O)[C@@H](NC(=O)CNC(=O)[C@H](Cc2ccc(O)cc2)NC(=O)[C@@H]2CCCN2C(=O)[C@H](C)NC(=O)[C@H](C)NC(=O)[C@@H](N)CCCNC(=N)N)C(C)C)CSSC[C@@H]2NC(=O)[C@@H](NC(=O)[C@H](CO)NC(=O)[C@H](CO)NC(=O)[C@H](CO)NC(=O)[C@H](CC(C)C)NC(=O)CNC(=O)[C@H](C)NC(=O)[C@H](CC(C)C)NC(=O)[C@@H](NC(=O)[C@@H](N)CC(=O)O)C(C)C)CSSC[C@H](NC(=O)CNC(=O)[C@H](Cc3c[nH]c4ccccc34)NC(=O)[C@H](CCCCN)NC2=O)C(=O)N[C@@H](CO)C(=O)N[C@@H](CCCCN)C(=O)N[C@@H](CO)C(=O)N[C@@H](CCC(=O)O)C(=O)N[C@@H]([C@@H](C)CC)C(=O)N[C@@H](CO)C(=O)N[C@@H](CO)C(=O)N[C@@H](CC(C)C)C(=O)N[C@H](C(=O)O)CSSC[C@@H](C(=O)NCC(=O)NCC(=O)N[C@@H](CO)C(=O)N[C@@H](CCCNC(=N)N)C(=O)N[C@@H](Cc2c[nH]c3ccccc23)C(=O)O)NC(=O)[C@H]([C@@H](C)O)NC(=O)[C@H](Cc2ccccc2)NC(=O)[C@H]([C@@H](C)CC)NC(=O)[C@H](C(C)C)NC(=O)[C@H](C)NC(=O)[C@H](CCCNC(=N)N)NC1=O [H3 relaxin] |  |  | activity at 0.01 µM [3]: ~50% |
| B1 | 8.1 M (as -log10) | no binding (tested: <5 (pIC50/pKi, M)) |  |
| B2 | 7.7 M (as -log10) | no binding (tested: <5 (pIC50/pKi, M)) | pEC50, ERK1/2 phosphorylation in stable CHO-RXFP3 cells (AlphaScreen) [6]: 10.4 -log10 (M not printed); pIC50 [7]: 7.1 M (as -log10) |
| B3 | 8.46 M (as -log10) | no binding (tested: <5 (pIC50/pKi, M)) |  |
| B4 | 7.85 M (as -log10) | no binding (tested: <5 (pIC50/pKi, M)) |  |
| B5 | 8.94 M (as -log10) |  | pEC50 (M), cAMP accumulation in HEK-293 cells expressing RXFP1 [1]: 8.74 M (as -log10) |
| B6 |  |  | pEC50 (M), inhibition of forskolin-induced cAMP, reporter gene assay in CHO-K1 cells expressing RXFP3 [8]: 7.9 M (as -log10); pEC50 (M), cAMP accumulation in HEK-293 cells expressing RXFP1 [1]: 6.23 M (as -log10); pKi [9]: 7.3 M (as -log10) |
| B7 | 8.51 M (as -log10) |  | pIC50 [7]: 7.33 M (as -log10) |
